Laboratory results from patent US10500274B2, “Methods for reducing viral load in HIV-1 infected patients” (CytoDyn Inc., priority 2008, dated 2019).
Values joined by “and” are separate entries in the source; they are usually repeats but may differ in a detail not shown here. Identical values can stand only once. Like-named read-outs stand apart in the source and are kept apart here.

Key:
[1] = tested on: HIV-1JR-FL envelope-mediated membrane fusion; experiment: microbe, parasite or virus in culture; type: cell-based; conditions: inhibitor alone, experiment depicted in FIG. 15A; read-out: IC90
R5-tropic HIV-1 = experiment: Phase 1b clinical study: plasma HIV-1 RNA; type: in vivo, human
Method: (§1) Plasma HIV-1 RNA levels were determined with the Cobas Amplicor HIV-1 Monitor Test (Version 1.5; Roche Diagnostics, Branchburg, N.J.). Samples <400 copies/mL were re-analyzed with the Ultrasensitive Monitor Method. Co-receptor tropism was determined at screening and Days 1, 8, 29 and 59 (Trofile™ assay, Monogram Biosciences, Inc., South San Francisco, Calif.). Viral susceptibility was determined on Days 1 and 59 with the Phenosense™ HIV Entry assay. Results obtained with CCR5^+ target cells were reported as Fold Change or relative EC50 (rEC50), which was defined as (EC50 test isolate)/(EC50 reference virus). […] Maximum percent inhibitions were determined from the plateaus of the inhibition curves. The reference virus was HIV-192HT594, a low-passage dual-tropic isolate. GeneSeq™ (Monogram Biosciences) was used to assess HIV-1 subtype and genotypic susceptibility to protease and reverse transcriptase inhibitors.
Statistical analyses were performed on log10 transformed HIV-1 RNA data, and changes were calculated relative to baseline (Day 1 pre-dose). Treatment and placebo groups were compared using an analysis of variance (ANOVA) model. […] In addition, 2-sided paired t-tests were used to evaluate changes from baseline in CCR5^+ lymphocytes. Where necessary, end-of-study lymphocyte data were used in place of missing baseline data. […] AUC∞ values for individual subjects were used in the model. Clinical Trial Design and Study Results:
The subjects comprised 31 males and 8 females, and their median age, CD4 counts and plasma HIV-1 RNA levels at baseline were 40.3 years, 484 cells/μL and 26,900 copies/mL, respectively Fifteen subjects reported prior use of antiretroviral therapy, and seven were co-infected with hepatitis C virus (HCV). All viruses were subtype B, and baseline genotypic resistance to existing drugs was limited to single-class resistance in two subjects in the 2 mg/kg group and a single subject in each of the other groups. The mean infusion time was 36 minutes, and all subjects completed the 58-day follow-up period. All patients were screened prior to the study for the presence of virus that utilizes only CCR5 as the entry coreceptor, i.e., CCR5-tropic virus.

[2] = human, in vivo; for Peak serum concentration (average) / mean time to last observation (tlast) / volume of distribution (average): iv
Source text: PK metrics were estimated using non-compartmental methods.

[3] = Phase 1b clinical study: safety, anti-PRO 140 antibodies, plasma RANTES
Source text: Subjects were ≥18 years of age with plasma HIV-1 RNA ≥5,000 copies/mL, R5-tropic HIV-1 only, CD4^+ cells ≥250/μL with no documented nadir ≤200/μL and no antiretroviral therapy for at least 3 months. Major exclusion criteria included pregnancy, history of AIDS-defining illness, the presence of X4-tropic HIV-1, and acute or symptomatic viral hepatitis within the prior 6 months.
Evaluations of clinical subjects included physical examinations, 12-lead electrocardiograms, vital signs, concomintant medications, and adverse events reporting. Clinical laboratory tests evaluated serum chemistries, hematology and urinalysis.
Samples below the LLOQ were assigned a value of zero. PK metrics were estimated using non-compartmental methods. The area under the serum concentration-time curve from time zero to infinity (AUC) was calculated using the linear trapezoidal rule. The terminal serum half-life was calculated by regression of the terminal portion of the concentration-time curve. […] Sera were tested at a 1:10 dilution initially, and positive samples were serially diluted for titer analysis.
CCR5^+ and CD4^+ lymphocytes were measured by flow cytometry. […] CTC5-PE data were used to determine the absolute number of circulating CCR5^+ lymphocytes pre- and post-treatment. RANTES was measured in platelet-depleted plasma using a validated ELISA.

[4] = tested on: HIV-1 isolates of study subjects; experiment: PhenoSense HIV Entry assay on viruses of Phase 1b subjects; type: cell-based
Method: as §1, with “assay.” for “assay. Results obtained with CCR5^+ target cells were reported as Fold Change or relative EC50 (rEC50), which was defined as (EC50 test isolate)/(EC50 reference virus).”

[5] = set-up: species or system human; conditions: in vivo, sc
Source text: Subjects were followed for a total of 58 days for safety and antiviral effects. Entry criteria included: HIV-1 RNA >5,000 copies/mL, R5 virus, […], no antiretroviral therapy <12 weeks.

B1: PRO 140: humanized IgG4,κ anti-CCR5 mAb, humanized version of the murine mAb PA14 (antibody, chains of the INN, looked up, V domains shown)
VH: EVQLVESGGGLVKPGGSLRLSCAASGYTFSNYWIGWVRQAPGKGLEWIGDIYPGGNYIRNNEKFKDKTTLSADTSKNTAYLQMNSLKTEDTAVYYCGSSFGSNYVFAWFTYWGQGTLVTVSS
VL: DIVMTQSPLSLPVTPGEPASISCRSSQRLLSSYGHTYLHWYLQKPGQSPQLLIYEVSNRFSGVPDRFSGSGSGTDFTLKISRVEAEDVGVYYCSQSTHVPLTFGQGTKVEIK
- IC90 [1]: 111 nM
- AUC50, exposure required to achieve 50% of Emax (R5-tropic HIV-1; Emax model): 43.7 ± 15.6 mg·days/L
- Mean HIV-1 RNA reduction (maximum) (R5-tropic HIV-1; HIV-infected adults, single IV 0.5 mg/kg): 0.58 log10
- day by which viral loads returned to baseline (R5-tropic HIV-1; all treatment groups): ≤ 29 days
- lowest documented HIV-1 RNA level on study (R5-tropic HIV-1; human, in vivo): 61 copies/mL
- Log10 change from baseline in HIV-1 RNA: Mean (±SD) of individual nadirs (R5-tropic HIV-1; single IV 0.5 mg/kg): −0.58 ± 0.30 log10
- antiviral response rate (subjects with ≥1.0 log10 reduction at any time) (R5-tropic HIV-1; single IV 0.5 mg/kg): 10%
- mean log10 decline in viral load at Day 10 (R5-tropic HIV-1; single IV 0.5 mg/kg): 0.37 log10
- Log10 change from baseline in HIV-1 RNA: Mean (±SD) at Day 10 (R5-tropic HIV-1; single IV 0.5 mg/kg, 0.5 mg/kg): −0.37 log10 and −0.37 ± 0.54 log10
- Log10 change from baseline in HIV-1 RNA: Mean (±SD) of individual nadirs (R5-tropic HIV-1; single IV 2 mg/kg): −1.20 ± 0.63 log10
- Mean HIV-1 RNA reduction (maximum) (R5-tropic HIV-1; single IV 2 mg/kg): 1.20 log10
- antiviral response rate (subjects with ≥1.0 log10 reduction at any time) (R5-tropic HIV-1; single IV 2 mg/kg): 60%
- mean log10 decline in viral load at Day 10 (R5-tropic HIV-1; single IV 2 mg/kg): 1.04 log10
- Individual HIV-1 RNA reductions (ranged to) (R5-tropic HIV-1; single IV 2 mg/kg, 2 mg/kg): up to 2.5 log10 and ≤ 2.5 log10
- Log10 change from baseline in HIV-1 RNA: Mean (±SD) at Day 10 (R5-tropic HIV-1; single IV 2 mg/kg, 2 mg/kg): −1.04 log10 and −1.04 ± 0.45 log10
- Mean HIV-1 RNA reduction (average maximum decrease of viral load) (R5-tropic HIV-1; single IV 5 mg/kg): 1.83 log10
- antiviral response rate (subjects with ≥1.0 log10 reduction at any time) (R5-tropic HIV-1; single IV 5 mg/kg): 100%
- day on which mean viral load reductions of 1 log10 were first observed (R5-tropic HIV-1; single IV 5 mg/kg): 5 Day
- mean log10 decline in viral load at Day 10 (nine days post-treatment) (R5-tropic HIV-1; single IV 5 mg/kg): 1.70 log10
- persistence of mean 1 log10 viral load reduction post-treatment (R5-tropic HIV-1; single IV 5 mg/kg): 2-3 weeks
- viral load change at day 22 (R5-tropic HIV-1; single IV 5 mg/kg): −0.73 log
- Individual HIV-1 RNA reductions (ranged to) (R5-tropic HIV-1; single IV 5 mg/kg, 5 mg/kg): up to 2.5 log10 and ≤ 2.5 log10
- Log10 change from baseline in HIV-1 RNA: Mean (±SD) at Day 10 (R5-tropic HIV-1; single IV 5 mg/kg, 5 mg/kg): −1.70 log10 and −1.70 ± 0.49 log10
- Log10 change from baseline in HIV-1 RNA: Mean (±SD) of individual nadirs (R5-tropic HIV-1; single IV 5 mg/kg, 5 mg/kg): −1.8 log10 and −1.84 ± 0.41 log10
- time of peak concentrations post-infusion [2]: 30 to 60 min
- Peak serum concentration (average) ([2]; 0.5 mg/kg): 13 µg/mL
- mean time to last observation (tlast) ([2]; 0.5 mg/kg): 6.1 days
- volume of distribution (average) ([2]; 0.5 mg/kg): 8.4 L
- Peak serum concentration (average) ([2]; 2 mg/kg): 61 µg/mL
- mean time to last observation (tlast) ([2]; 2 mg/kg): 18.2 days
- volume of distribution (average) ([2]; 2 mg/kg): 13.8 L
- Peak serum concentration (average) ([2]; 5 mg/kg): 173 µg/mL
- mean time to last observation (tlast) ([2]; 5 mg/kg): 18.9 days
- volume of distribution (average) ([2]; 5 mg/kg): 7.1 L
- serious adverse events / dose-limiting toxicity ([3]; human, in vivo): No drug-related serious adverse events or dose-limiting toxicity was reported
- effect on QTc intervals / electrocardiogram ([3]; single IV 0.5, 2 and 5 mg/kg): no clinically relevant drug-related effect on QTc intervals
- change in viral susceptibility, baseline to day 59 (in words) ([4]; IC50 or Fold Change): No change from baseline to day 59
- Mean Maximum Percent Inhibition (MPI) ([4]; baseline): 99% and 98.9±1.5%
- variation of baseline rIC50 values across the 39 subjects ([4]; baseline): 6.2 fold
- Mean rIC50 (IC50 test isolate / IC50 reference virus) ([4]; baseline, viruses of PRO 140-treated subjects): 2.0 (range: 0.83-5.1)
- Mean Maximum Percent Inhibition (MPI) ([4]; post-treatment (end of study)): 99% and 99.0±1.0%
- administration site reactions [5]: mild in intensity and resolved within one to two days
- drug-related serious adverse events [5]: no drug-related serious adverse events
- tolerability [5]: generally well tolerated compared to placebo
